Experimental data reported in the supplement of paper PMC10126150.
± gives the standard deviation of the averaged measurements.

Tested on: ATP
Assay: switch fluorescence ratio, 500 uM ATP over buffer (Cy3 cluster intensity, sum of 5 cycles each) (fold (ratio)); higher = stronger signal-on switching upon ATP binding; sequences stand for … in TCGTCGGCAGCGTCAGATGTGTATAAGAGACAGTTTTTTTTTTTTTTTTTTTTTTTTT…TC
Conditions: aptamer strand: ATP DNA aptamer (quencher-CACCTGGGGGAGTATTGCGGAGGAAGG + anchor), 100 nM annealed; ATP concentration: 500 uM
How it was run: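 The quencher-labelled ATP aptamer, at 100 nM, was annealed to Cy3-labelled switching-strand clusters on a modified Illumina MiSeq flow-cell. The clusters were imaged in selection buffer, then after 15 min with 500 uM ATP at 22 °C, and this buffer/ATP cycle ran five times with NaOH stripping and re-annealing between runs. Per-cluster fluorescence ratios, summed target-cycle over summed buffer-cycle Cy3 intensity, were averaged per switch-domain sequence. Clusters outside 100-1000 RFU were excluded.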
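Further: ATP exposure 15 min at 22 °C before imaging.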

Sequence	switch fluorescence ratio
GTGCATGCGT	0.998 ± 0.03
GTGCCAGGAT	1.03 ± 0.052
GTGCCTGATG	1.05 ± 0.046
GTGCGAAATC	1.25 ± 0.033
GTGCGAACTT	1.015 ± 0.0028
GTGCGAGAAC	1.01 ± 0.025
GTGCGAGAGC	1.01 ± 0.043
GTGCGATTTA	0.992 ± 0.034
GTGCGCAGAA	0.988 ± 0.015
GTGCGCCGGT	1.02 ± 0.036
GTGCGGTGGC	1.04 ± 0.038
GTGCTAAGAG	0.969 ± 0.043
GTGCTATAGT	1.031 ± 0.0018
GTGCTTAATT	1 ± 0.05
GTGCTTCGGT	0.948 ± 0.026
GTGCTTTTTT	0.993 ± 0.013
GTGGAACATT	1.02 ± 0.049
GTGGAACGTA	0.976 ± 0.015
GTGGAAGTCC	1 ± 0.022
GTGGAAGTGG	1.02 ± 0.034
GTGGAATATT	1.04 ± 0.063
GTGGACCGGA	1.06 ± 0.012
GTGGACTTGC	0.973 ± 0.042
GTGGATGGAC	1.03 ± 0.022
GTGGATTGGA	1.05 ± 0.024

Sequence	switch fluorescence ratio
GTGGCAAAGA	0.993 ± 0.023
GTGGCAAGTT	0.97 ± 0.017
GTGGCACG	1.01 ± 0.025
GTGGCGAGGG	0.996 ± 0.0078
GTGGCGCGGA	0.959 ± 0.013
GTGGCGGGGA	1.02 ± 0.038
GTGGCGGTG	0.985 ± 0.014
GTGGCTATCG	0.993 ± 0.025
GTGGCTGCGT	0.9776 ± 0.0063
GTGGCTTGTG	1 ± 0.029
GTGGGAATTT	0.9823 ± 0.0081
GTGGGACGGG	1.03 ± 0.056
GTGGGAGGCT	1 ± 0.024
GTGGGATTT	0.995 ± 0.022
GTGGGCTTGT	0.979 ± 0.048
GTGGGGAATC	1.02 ± 0.082
GTGGGGAGAG	0.9602 ± 0.0078
GTGGGGCACG	0.9933 ± 0.0095
GTGGGGCAGC	0.945 ± 0.015
GTGGGGCATT	0.9905 ± 0.0086
GTGGGGCGGT	0.9832 ± 0.006
GTGGGGGAAT	1 ± 0.011
GTGGGGGGAG	1 ± 0.026
GTGGGGGGCT	0.984 ± 0.029
GTGGGGGGGA	1.01 ± 0.023

Sequence	switch fluorescence ratio
GTGGGGGGGG	0.995 ± 0.038
GTGGGGGTAT	1.05 ± 0.15
GTGGGGTATT	0.977 ± 0.028
GTGGGGTCCG	0.99 ± 0.046
GTGGGGTCGT	0.926 ± 0.045
GTGGGTGGGT	1 ± 0.025
GTGGGTTGGT	1.008 ± 0.0054
GTGGTATCAT	0.978 ± 0.03
GTGGTATGCA	1.02 ± 0.074
GTGGTCGCTG	0.982 ± 0.019
GTGGTGTGGT	0.982 ± 0.011
GTGGTTCCTG	0.967 ± 0.015
GTGGTTCGGG	0.975 ± 0.029
GTGGTTGGAA	0.963 ± 0.022
GTGGTTTTAT	0.979 ± 0.013
GTGGTTTTGA	0.9832 ± 0.0064
GTGTAAAGGC	0.96 ± 0.021
GTGTAAGACC	1.03 ± 0.027
GTGTAATGGT	1.03 ± 0.021
GTGTAATTAT	0.9697 ± 0.0055
GTGTACCGGA	0.9813 ± 0.0017
GTGTACTCAT	1.01 ± 0.035
GTGTATAGAG	0.99 ± 0.051
GTGTATAGTT	1.02 ± 0.056
GTGTATTAGT	0.9656 ± 0.003

Sequence	switch fluorescence ratio
GTGTATTATT	0.976 ± 0.02
GTGTATTGGT	0.983 ± 0.024
GTGTCAGTTG	0.93646 ± 0.00087
GTGTCCGGGC	0.979 ± 0.025
GTGTGAAAAC	1.02 ± 0.02
GTGTGAGATT	1.02 ± 0.024
GTGTGAGTAG	1.02 ± 0.039
GTGTGATCTC	0.992 ± 0.046
GTGTGGAGGG	1.016 ± 0.0016
GTGTGGCAGG	0.992 ± 0.024
GTGTGGGAAG	1.01 ± 0.028
GTGTGGGGAT	1 ± 0.044
GTGTGGGGCT	1 ± 0.019
GTGTGTAGGG	0.999 ± 0.039
GTGTGTCCGG	0.987 ± 0.026
GTGTGTCTGT	0.991 ± 0.021
GTGTGTGGCT	0.976 ± 0.051
GTGTGTTAAC	0.9738 ± 0.0095
GTGTGTTGGG	0.984 ± 0.026
GTGTGTTTAG	0.9892 ± 0.0058
GTGTGTTTGC	1.004 ± 0.0058
GTGTTAAGGA	0.995 ± 0.02
GTGTTAAGGG	0.979 ± 0.028
GTGTTAAGTA	1.0306 ± 0.00088
GTGTTACGTT	1.02 ± 0.021
